Data: publication PMC9352680, “A comprehensive thermodynamic model for RNA binding by the Saccharomyces cerevisiae Pumilio protein PUF4”
Numbering of substitutions follows the chain as printed. Numbers in names are those of the source.

T1: PUF4 RNA-binding domain (Saccharomyces cerevisiae, UniProt P25339 537-888)
T1 sequence: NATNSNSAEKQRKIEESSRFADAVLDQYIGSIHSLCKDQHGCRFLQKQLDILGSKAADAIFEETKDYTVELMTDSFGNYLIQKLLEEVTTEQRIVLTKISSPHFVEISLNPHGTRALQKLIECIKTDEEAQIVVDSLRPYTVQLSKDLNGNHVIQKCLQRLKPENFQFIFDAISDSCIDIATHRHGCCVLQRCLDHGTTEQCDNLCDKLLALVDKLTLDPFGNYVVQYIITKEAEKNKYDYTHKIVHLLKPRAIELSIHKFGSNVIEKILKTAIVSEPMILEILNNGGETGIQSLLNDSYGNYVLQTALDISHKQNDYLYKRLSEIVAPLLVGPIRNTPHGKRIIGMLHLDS

B1: Ic_S4_P5E.1_K5.1_C5.1_H5.1_A5.1_[A7T]_F5.1_[T8A]_[T9A]_T5.1 (ssRNA)
RNA: UUUGACAACUGAUCGUUCUUUCUUGUAUUUAAAUUCUUUCUCGAUCAGUUGUCUUU
B2: Ic_S4_P5E.1_K5.1_C5.1_H5.1_A5.1_[T6C]_F5.1_[T8G]_[A10C]_T5.1 (ssRNA)
RNA: B1 RNA with U29C, U30A, A31G, A32U, A33C
B3: Ic_S4_P5E.1_K5.1_C5.1_H5.1_A5.1_[T5G]_[T6C]_[A7T]_F5.1_[T8C]_T5.1 (ssRNA)
RNA: B1 RNA with U28G, U29C, A31C, A32U
B4: Ic_S4_P5E.1_K5.1_C5.1_H5.1_A5.1_[T6A]_[A7G]_F5.1_[T8C]_[T9A]_[A10T]_T5.1 (ssRNA)
RNA: B1 RNA with U29A, U30G, A31C, A33U
B5: Ic_S4_P5E.1_K5.1_C5.1_H5.1_A5.1_[T5A]_[A7T]_F5.1_[T8A]_[A10C]_T5.1 (ssRNA)
RNA: B1 RNA with U28A, A32U, A33C
B6: Ic_S4_P5E.1_K5.1_C5.1_H5.1_A5.1_[T6A]_[A7C]_F5.1_[T8C]_[T9G]_[A10G]_T5.1 (ssRNA)
RNA: B1 RNA with U29A, U30C, A31C, A32G, A33G
B7: Ic_S4_P5E.1_K5.1_C5.1_H5.1_A5.1_[A7C]_F5.1_[T9G]_[A10G]_T5.1 (ssRNA)
RNA: B1 RNA with U30C, A31U, A32G, A33G
B8: Ic_S4_P5E.1_K5.1_C5.1_H5.1_A5.1_[T5A]_[T6A]_F5.1_[T8C]_[T9A]_[A10C]_T5.1 (ssRNA)
RNA: B1 RNA with U28A, U29A, U30A, A31C, A33C
B9: Ic_S4_P5E.1_K5.1_C5.1_H5.1_A5.1_[T5A]_[T6C]_[A7T]_F5.1_[T8A]_[T9A]_T5.1 (ssRNA)
RNA: B1 RNA with U28A, U29C
B10: Ic_S4_P5E.1_K5.1_C5.1_H5.1_A5.1_[T6A]_[A7T]_F5.1_[T8A]_[T9A]_[A10T]_T5.1 (ssRNA)
RNA: B1 RNA with U29A, A33U
B11: Ic_S4_P5E.1_K5.1_C5.1_H5.1_A5.1_[T5G]_[A7T]_F5.1_[T8C]_[A10T]_T5.1 (ssRNA)
RNA: B1 RNA with U28G, A31C, A32U, A33U
B12: Ic_S4_P5E.1_K5.1_C5.1_H5.1_A5.1_[T5A]_[A7G]_F5.1_[T8G]_[A10C]_T5.1 (ssRNA)
RNA: B1 RNA with U28A, U30G, A31G, A32U, A33C
B13: Ic_S4_P5E.1_K5.1_C5.1_H5.1_A5.1_[T6G]_[A7G]_F5.1_[T8C]_[A10C]_T5.1 (ssRNA)
RNA: B1 RNA with U29G, U30G, A31C, A32U, A33C
B14: Ic_S4_P5E.1_K5.1_C5.1_H5.1_A5.1_[T6A]_[A7T]_F5.1_[T8C]_[T9G]_[A10G]_T5.1 (ssRNA)
RNA: B1 RNA with U29A, A31C, A32G, A33G
B15: Ic_S4_P5E.1_K5.1_C5.1_H5.1_A5.1_[T5A]_[T6A]_[A7T]_F5.1_[T8A]_[T9C]_[A10G]_T5.1 (ssRNA)
RNA: B1 RNA with U28A, U29A, A32C, A33G
B16: Ic_S4_P5E.1_K5.1_C5.1_H5.1_A5.1_[T6A]_[A7T]_F5.1_[T8C]_[T9C]_[A10T]_T5.1 (ssRNA)
RNA: B1 RNA with U29A, A31C, A32C, A33U
B17: Ic_S4_P5E.1_K5.1_C5.1_H5.1_A5.1_[T5A]_[T6C]_[A7C]_F5.1_[A10T]_T5.1 (ssRNA)
RNA: B1 RNA with U28A, U29C, U30C, A31U, A32U, A33U
B18: Ic_S4_P5E.1_K5.1_C5.1_H5.1_A5.1_[T5A]_[T6C]_[A7T]_F5.1_[T8A]_[A10C]_T5.1 (ssRNA)
RNA: B1 RNA with U28A, U29C, A32U, A33C
B19: Ic_S4_P5E.1_K5.1_C5.1_H5.1_A5.1_[T5C]_F5.1_[T8A]_[T9C]_[A10C]_T5.1 (ssRNA)
RNA: B1 RNA with U28C, U30A, A32C, A33C
B20: Ic_S4_P5E.1_K5.1_C5.1_H5.1_A5.1_[T6G]_[A7T]_F5.1_[T8A]_[T9A]_T5.1 (ssRNA)
RNA: B1 RNA with U29G
B21: Ic_S4_P5E.1_K5.1_C5.1_H5.1_A5.1_[T5A]_[T6C]_[A7T]_F5.1_[T8C]_[T9C]_[A10C]_T5.1 (ssRNA)
RNA: B1 RNA with U28A, U29C, A31C, A32C, A33C
B22: Ic_S4_P5E.1_K5.1_C5.1_H5.1_A5.1_[T5C]_[T6A]_F5.1_[T9G]_[A10G]_T5.1 (ssRNA)
RNA: B1 RNA with U28C, U29A, U30A, A31U, A32G, A33G
B23: Ic_S4_P5E.1_K5.1_C5.1_H5.1_A5.1_[T5G]_[A7C]_F5.1_[T9C]_[A10G]_T5.1 (ssRNA)
RNA: B1 RNA with U28G, U30C, A31U, A32C, A33G
B24: Ic_S4_P5E.1_K5.1_C5.1_H5.1_A5.1_[T5C]_[T6G]_[A7C]_F5.1_[T8C]_[T9C]_T5.1 (ssRNA)
RNA: B1 RNA with U28C, U29G, U30C, A31C, A32C
B25: Ic_S4_P5E.1_K5.1_C5.1_H5.1_A5.1_[T5A]_[T6A]_[A7T]_F5.1_[T9A]_T5.1 (ssRNA)
RNA: B1 RNA with U28A, U29A, A31U

Molecular target: T1, PUF4 RNA-binding domain
Assay: Mg; RNA-MaP; 20 mM Na-HEPES pH 7.4, 30 mM KOAc, 0.75 mM MgCl2, 0.1% Tween-20, 5% glycerol, 0.1 mg/mL BSA, 2 mM DTT; 25 C; 0.0125-409.6 nM protein
Conditions: tags: N-His6-TEV cleaved; C-SNAP kept, Cy3B-labelled; label: tethered on chip by stalled RNA polymerase

Binder | Kd [µM]
UCUCUUUGUAUAAUGUCUCUU (ssRNA) [Ic_S1_P4E.1_K4.1_C4.1_H4.1_A4.1_[T7A]_F4.1_[A9G]_T4.1] | 0.00603
B1 | 0.0389
B2 | 0.342
B3 | 0.0101
B4 | 0.0564
B5 | 0.126
B6 | 0.144
B7 | 0.0272
B8 | 0.19
B9 | 0.233
B10 | 0.0024
UCUCUUUGUAUAGUCUCUCUU (ssRNA) [Ic_S1_P4E.1_K4.1_C4.1_H4.1_A4.1_[T7G]_F4.1_[A9C]_T4.1] | 0.0234
B11 | 0.0917
B12 | 1.35
B13 | 0.849
B14 | 0.0728
B15 | 0.0503
B16 | 0.0147
B17 | 0.018
B18 | 0.156
B19 | 0.229
B20 | 0.0556
UCUCUUUGUAUACUCUCUCUU (ssRNA) [Ic_S1_P4E.1_K4.1_C4.1_H4.1_A4.1_[T7C]_F4.1_[A9C]_T4.1] | 0.00932
B21 | 0.198
B22 | 0.0169
B23 | 0.425
B24 | 0.463
B25 | 0.00248
UCUCUUGCUGUAUAUAUAUCUCUU (ssRNA) [Id_ii_S1_P3E.2_K3.1_C3.2_[C-2G]_[T-1C]_H3.1_A3.1_F3.1_T3.2] | 0.00765
UCUCUUUGUGUAUAUAUAUCUCUU (ssRNA) [Id_ii_S1_P3E.2_K3.1_C3.2_[C-2T]_[T-1G]_H3.1_A3.1_F3.1_T3.2] | 0.00624
